Measured values published in patent US11571484B2, “Compositions that target tumor-associated macrophages and methods of use therefor” (Sanford Burnham Prebys Medical Discovery Institute, priority 2017, dated 2023).
Ends that are not written are not given here. FAM = 5(6)-carboxyfluorescein; Ahx = NCCCCCC(=O)O

Key:
recombinant mouse CD163 = biological target: T1, recombinant mouse CD163 (Mus musculus, UniProt Q2VLH6); assay: Fluorescence anisotropy assay with recombinant CD163; assay type: binding; conditions: 50 nM FAM peptide, 1 μM protein, 25 °C
T1 construct: purchased R&D Systems 7435-CD-050
Method: The recombinant mouse macrophage mannose receptor rmMMR/CD206 (R&D Systems, catalog number: 2535-MM-050) and recombinant mouse CD163 (R&D Systems, catalog number: 7435-CD-050) were reconstituted at 1 mg/ml in IB, aliquoted and stored at −20° C. To generate linearized version of cyclic FAM-UNO peptide, the peptide at 1 mM concentration was preincubated for 24 h at room temperature in a dark place with 3 mM DTT and diluted with IB 2×10^5 times before the FA assay. The control experiment with FAM-CPMTDNE peptide (FIG. 22) was performed to rule out the possibility of disulphide bond formation, which could affect the binding properties of linear peptides. […]
Fluorescence anisotropy was also carried out using recombinant human macrophage mannose receptor rhMMR/CD206 to determine whether UNO peptide interactions with mouse CD206 carried over to human CD206. […]
In all experiments, FA signal measurements were done under pseudo first-order conditions with 50 nM singly labelled FAM peptides and 1 μM proteins. […] Assays were carried out in kinetic mode in a total volume of 30 μl at 25° C. on the PHERAstar (BMG Labtech, Germany) microplate reader using an optical module with excitation and emission filters of 485 nm (slit 10 nm) and 520 nm (slit 10 nm), respectively. […] FA signals at time t after initiation of binding reaction was calculated as parameters r(t) from the equation: […]

MEMs in WT-GBM tumors = assay: Free peptide homing and immunofluorescence in the orthotopic WT-GBM glioblastoma model; conditions: 30 nmoles i.v., 2 h
Method: Thirty nmoles of FAM-UNO or FAM-control peptide were injected intravenously into mice and allowed to circulate for 2 h. Mice were then sacrificed and tumor and tissues were analyzed by immunofluorescence using rabbit anti-FAM (green) and rat anti-CD206 (red) antibodies, and counterstained with DAPI. […] The metastases were induced by i.v. inoculation of B16F10 melanoma cells. […] Blue: DAPI. Representative fields from multiple sections (n≥3) prepared from at least 3 tumors are shown. Scale bar: 50 μm. Images shown are representative fields from multiple sections (≥3) prepared from at least 3 tumors (n≥3 mice). The graphs show mean+SEM of FAM signal quantified as described in Materials and Methods.
Tumor models were induced according to protocols approved by the Estonian Ministry of Agriculture, Committee of Animal Experimentation (permit #48). For the 4T1 breast model, 8-week old female Balb/c mice were injected in the mammary fat pad with 10^6 cells dispersed in 50 μL of PBS. For homing studies, mice were used 10 days later, when the tumor had reached ˜150 mm^3. For MCF-7 breast model, 8-week old female nude mice were implanted with an estrogen pellet, and 1 week later inoculated with 5×10^6 MCF-7 cells in 100 μL of cold Matrigel (BD Biosciences, CA, USA). Mice were used for homing studies three weeks later (tumor volume˜150 mm^3). For the metastatic gastric carcinoma, 10^6 MKN45-P cells in PBS were injected intraperitoneally in 8-week old female nude mice. Mice were used for homing studies two weeks later. For the metastatic melanoma model, 2×10^5 B16F10 cells were injected intravenously in 100 μL of PBS in C57 BL6 mice. The mice were used for homing studies 10 days after. For the angiogenic glioblastoma model, WT-GBM 24, 7×10^5 cells were stereotactically injected in the right striatum of Fox/Nu mice 2 mm lateral and posterior of bregma of 2.5 mm deep. The mice were used for homing studies 6-7 days after the injection.
For free peptide homing studies, mice were injected intravenously with 30 nmoles of FAM-peptides in 100 μL of PBS. For nanoparticle homing studies-FAM-UNO—NP-PTX-, mice were injected intravenously in mice bearing MCF-7 breast tumors with 1 mg of Polymer in 100 μL pf PBS and allowed to circulate for 6 h. For tissue collection, the mice were anesthetized and the tissues collected and immediately placed in 4% cold PFA and left overnight at 4-C. Tissues were washed with PBS for 2 h at room temperature and cryoprotected with sucrose 15% at 4-C overnight and then in sucrose 30% at 4·C overnight. […] FAM was detected using Rabbit anti-FITC (Invitrogen, CA, USA. Catalog # A-889) at a dilution of 1/100 and using Alexa Fluor-546 anti-rabbit antibody (Invitrogen, Ca, USA. Catalog # A-11035) at a dilution of 1/200.

[1] = 4T1 tumor lysate, injected within 1 min
Method: High-performance liquid chromatography (Agilent 1200 series, USA)-mass spectrometry (SciexQ-Trap 4500, Canada) analysis was done using a C18 column (Kinetex 2.6 μm EVO C18 100×4.6 mm, Phenomenex, USA). Ionization was performed at 300° C. with declustering potential set 30 V. Chromatography gradient started with 2 min 5% acetonitrile in water, followed by linear increase to 95% acetonitrile in 10 min and finally 10 min isocratic flow of 95% acetonitrile in water. Both eluents, water and acetonitrile, contained 0.2% formic acid. Flow rate was 0.3 ml/min. Column temperature was maintained at 40° C. Autosampler temperature was set to 37° C. Retention times and m/z signals of FAM-UNO, were determined from 30 μM FAM-UNO solution in PBS. Tumor lysate was split into two aliquots of 200 μL in each. From one aliquot, 20 μL were injected and the LC-MS profile obtained. The second aliquot was mixed with 50 μL of 30 μM FAM-UNO in PBS and injected within 1 min to LC-MS and the LC-MS profile obtained.

T1 sequence (Q2VLH6 39-1121): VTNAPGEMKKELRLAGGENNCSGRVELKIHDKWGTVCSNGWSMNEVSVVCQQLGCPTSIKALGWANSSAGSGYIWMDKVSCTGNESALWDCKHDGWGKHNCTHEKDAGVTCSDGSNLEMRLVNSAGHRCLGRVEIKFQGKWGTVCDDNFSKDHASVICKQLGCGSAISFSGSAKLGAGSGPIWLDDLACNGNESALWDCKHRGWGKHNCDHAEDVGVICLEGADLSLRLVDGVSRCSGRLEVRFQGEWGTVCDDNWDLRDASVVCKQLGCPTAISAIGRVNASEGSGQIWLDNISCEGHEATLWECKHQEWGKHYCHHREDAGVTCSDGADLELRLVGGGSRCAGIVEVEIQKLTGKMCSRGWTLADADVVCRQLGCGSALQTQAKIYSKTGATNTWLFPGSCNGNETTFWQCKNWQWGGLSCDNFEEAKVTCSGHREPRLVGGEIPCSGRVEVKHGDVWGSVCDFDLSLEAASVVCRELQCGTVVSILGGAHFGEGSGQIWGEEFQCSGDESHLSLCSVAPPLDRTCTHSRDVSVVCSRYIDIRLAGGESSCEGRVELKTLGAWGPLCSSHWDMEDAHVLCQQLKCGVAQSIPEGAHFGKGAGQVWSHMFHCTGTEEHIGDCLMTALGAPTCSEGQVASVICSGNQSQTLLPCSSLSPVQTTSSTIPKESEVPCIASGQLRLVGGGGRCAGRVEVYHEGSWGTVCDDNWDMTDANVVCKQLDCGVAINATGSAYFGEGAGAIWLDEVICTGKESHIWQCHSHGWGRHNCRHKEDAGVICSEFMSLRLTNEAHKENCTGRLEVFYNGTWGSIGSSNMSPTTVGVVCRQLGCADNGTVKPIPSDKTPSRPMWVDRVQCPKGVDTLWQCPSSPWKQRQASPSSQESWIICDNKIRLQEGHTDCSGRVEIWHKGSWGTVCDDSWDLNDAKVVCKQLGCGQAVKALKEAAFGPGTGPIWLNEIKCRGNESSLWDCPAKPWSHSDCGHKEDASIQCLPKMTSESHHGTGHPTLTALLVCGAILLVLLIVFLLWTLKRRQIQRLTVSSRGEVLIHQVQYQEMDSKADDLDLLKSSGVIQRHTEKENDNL

change in fluorescence anisotropy with CD163 (recombinant mouse CD163) | Substance | accumulation in tumor (MEMs in WT-GBM tumors) | signal in normal brain parenchyma (MEMs in WT-GBM tumors) | fate of the disulfide bridge on incubation with tumor lysate [1]
no change in anisotropy | FAM-CSPGAK: FAM-labeled linear CSPGAK (SEQ ID NO: 6) (not fully specified; FAM label) |  |  | 
 | FAM-UNO: FAM-labeled UNO peptide CSPGAKVRC (SEQ ID NO: 1); 5(6)-carboxyfluorescein with 6-aminohexanoic acid spacer at the N-terminus ({FAM-Ahx}-CSPGAKVRC; cysteine pairing not given here) | accumulated in the tumor areas containing MEMs | No signal | the disulfide bridge was reduced to yield a linear peptide
